Measurements reported in the supplement of paper PMC7877785.
± gives the uncertainty stated by the source.

Assay: self-splicing fitness, log relative to wild type (ln ratio); higher = more splicing; Tetrahymena group I intron in knt gene, E. coli kanamycin selection, DiMSum; sequences stand for … in CUCUCU…GGAGGGAAAAGUUAUCAGGCAUGCACCUGGUAGCUAGUCUUUAAACCAAUAGAUUGCAUCGGUUUAAAAGGCAAGACCGUCAAAUUGCGGGAAAGGGGUCAACAGCCGUUCAGUACCAAGUCUCAGGGGAAACUUUGAGAUGGCCUUGCAAAGGGUAUGGUAAUAAGCUGACGGACAUGGUCCUAACCACGCAGCCAAGUCCUAAGUCAACAGAUCUUCUGUUGAUAUGGAUGCAGUUCACAGACUAAAUGUCGGUCGGGGAAGAUGUAUUCUUCUCAUAAGAUAUAGUCGGACCUCUCCUUAAUGGGAGCUAGCGGAUGAAGUGAUGCAACACUGGAGCCGCUGGGAACUAAUUUGUAUGCGAAAGUAUAUUGAUUAGUUUUGGAGUACUCGUGGUCG
Method in brief: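 The eight P1ex-region nucleotides of an intron in the knt kanamycin-resistance gene on pET-22b(+) were all randomised and the library put into E. coli BL21(DE3). Six replicate transformations were grown overnight at 37°C or 30°C on LB agar with or without 25 μg/mL kanamycin, together with 100 μg/mL carbenicillin, 50 μM IPTG and 0.2% rhamnose. Colonies were pooled and amplicon-sequenced on an Illumina HiSeq 2500. Fitness from DiMSum is the error-weighted combination of wild-type-normalised replicate fold changes, kanamycin over none.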

| Sequence | self-splicing fitness (ln) (30 °C) | self-splicing fitness (ln) (37 °C) |
| --- | --- | --- |
| CACUAGCAAUAUUACGUUAG | -3.34 ± 0.14 | -2.92 ± 0.17 |
| CACUAGCAAUAUUACGUUCC | -3.39 ± 0.17 | -1.65 ± 0.17 |
| CAGAAGCAAUAUUACGAAGC | -2.87 ± 0.31 |  |
| CAGAAGCAAUAUUACGAAUC |  | -1.93 ± 0.38 |
| CAGAAGCAAUAUUACGACGU | -1.53 ± 0.12 | -0.618 ± 0.12 |
| CAGAAGCAAUAUUACGACUU | -0.506 ± 0.078 | 0.0901 ± 0.079 |
| CAGAAGCAAUAUUACGAGCC | -3.03 ± 0.47 | -1.82 ± 0.27 |
| CAGAAGCAAUAUUACGAGCU | -2.12 ± 0.18 | -1.77 ± 0.2 |
| CAGAAGCAAUAUUACGAGGC |  | -2.83 ± 0.4 |
| CAGAAGCAAUAUUACGAUCG | -0.236 ± 0.078 | 0.167 ± 0.1 |
| CAGAAGCAAUAUUACGCAGA | -2.59 ± 0.22 | -2.55 ± 0.28 |
| CAGAAGCAAUAUUACGCCCG | -0.995 ± 0.15 | 0.147 ± 0.16 |
| CAGAAGCAAUAUUACGCUCU | -4.2 ± 0.24 | -2.41 ± 0.17 |
| CAGAAGCAAUAUUACGGAAU | -3.93 ± 0.2 | -1.94 ± 0.18 |
| CAGAAGCAAUAUUACGGAGA |  | -2.16 ± 0.24 |
| CAGAAGCAAUAUUACGGCCU | -1.29 ± 0.13 | -1.82 ± 0.23 |
| CAGAAGCAAUAUUACGGGAC |  | -1.25 ± 0.35 |
| CAGAAGCAAUAUUACGGUAA | -3.62 ± 0.25 | -2.49 ± 0.18 |
| CAGAAGCAAUAUUACGGUCA | -1.54 ± 0.13 | -1.15 ± 0.097 |
| CAGAAGCAAUAUUACGGUGC | -4.16 ± 0.24 | -3.04 ± 0.18 |
| CAGAAGCAAUAUUACGGUUC | -3.71 ± 0.19 | -2.49 ± 0.2 |
| CAGAAGCAAUAUUACGUCAG | -1.15 ± 0.056 | -0.204 ± 0.078 |
| CAGAAGCAAUAUUACGUCUA | -0.102 ± 0.07 | 0.782 ± 0.11 |
| CAGAAGCAAUAUUACGUUCG | -0.642 ± 0.051 | 0.234 ± 0.064 |
| CAGAAGCAAUAUUACGUUGG | -2.15 ± 0.11 | -0.698 ± 0.1 |

| Sequence | self-splicing fitness (ln) (30 °C) | self-splicing fitness (ln) (37 °C) |
| --- | --- | --- |
| CAGAAGCAAUAUUACGUUUG | -3.42 ± 0.19 | -2.54 ± 0.2 |
| CAGCAGCAAUAUUACGAGAC | -3.94 ± 0.36 | -2.21 ± 0.26 |
| CAGCAGCAAUAUUACGAGGU | -2.8 ± 0.16 | -2.42 ± 0.21 |
| CAGCAGCAAUAUUACGAUAA | -3.08 ± 0.14 | -2.24 ± 0.13 |
| CAGCAGCAAUAUUACGAUCG | -0.0679 ± 0.074 | 0.219 ± 0.094 |
| CAGCAGCAAUAUUACGAUUU | -3.59 ± 0.17 | -1.91 ± 0.15 |
| CAGCAGCAAUAUUACGCAAC | -3.45 ± 0.28 | -1.37 ± 0.25 |
| CAGCAGCAAUAUUACGCACG | -0.667 ± 0.09 | -0.264 ± 0.1 |
| CAGCAGCAAUAUUACGCAUU | -3.68 ± 0.15 | -0.546 ± 0.089 |
| CAGCAGCAAUAUUACGCGCC | -1.71 ± 0.25 | -0.362 ± 0.22 |
| CAGCAGCAAUAUUACGCGUC | -3.68 ± 0.17 | -1.24 ± 0.13 |
| CAGCAGCAAUAUUACGCUAA | -2.47 ± 0.2 | -1.72 ± 0.13 |
| CAGCAGCAAUAUUACGCUAC | -3.65 ± 0.38 | -2.81 ± 0.38 |
| CAGCAGCAAUAUUACGGAUG | -2.06 ± 0.097 | -1.48 ± 0.098 |
| CAGCAGCAAUAUUACGGGCG | 0.0476 ± 0.064 | 0.363 ± 0.083 |
| CAGCAGCAAUAUUACGGUCA | -2.45 ± 0.17 | -1.22 ± 0.11 |
| CAGCAGCAAUAUUACGGUCU | -2.87 ± 0.13 | -0.712 ± 0.1 |
| CAGCAGCAAUAUUACGGUUA | -0.417 ± 0.06 | -0.163 ± 0.059 |
| CAGCAGCAAUAUUACGUAGA | -2.13 ± 0.071 | -1.57 ± 0.097 |
| CAGCAGCAAUAUUACGUCAU | -4.22 ± 0.33 | -2.77 ± 0.23 |
| CAGCAGCAAUAUUACGUCCA | -2.61 ± 0.3 | -0.781 ± 0.22 |
| CAGCAGCAAUAUUACGUCGA | -1.73 ± 0.12 | -1.25 ± 0.11 |
| CAGCAGCAAUAUUACGUGCG | -1 ± 0.05 | -0.378 ± 0.066 |
| CAGCAGCAAUAUUACGUUCA | -2.17 ± 0.2 | -0.173 ± 0.17 |
| CAGCAGCAAUAUUACGUUCC |  | -2.13 ± 0.25 |

| Sequence | self-splicing fitness (ln) (30 °C) | self-splicing fitness (ln) (37 °C) |
| --- | --- | --- |
| CAGGAGCAAUAUUACGAGGU | -2.48 ± 0.2 | -2.84 ± 0.25 |
| CAGGAGCAAUAUUACGCCCA | -2.13 ± 0.38 | -1.18 ± 0.27 |
| CAGGAGCAAUAUUACGCCGA | -1.75 ± 0.4 |  |
| CAGGAGCAAUAUUACGCCUU | -1.86 ± 0.24 | -1.99 ± 0.33 |
| CAGGAGCAAUAUUACGCGAG | -2.59 ± 0.23 | -1.59 ± 0.16 |
| CAGGAGCAAUAUUACGCGGC | -1.43 ± 0.36 | -1.14 ± 0.41 |
| CAGGAGCAAUAUUACGCUUU | -3.59 ± 0.22 | -1.81 ± 0.17 |
| CAGGAGCAAUAUUACGGCGA | -2.73 ± 0.29 | -3.49 ± 0.29 |
| CAGGAGCAAUAUUACGGGGU | -3.38 ± 0.23 | -2.19 ± 0.24 |
| CAGGAGCAAUAUUACGGUUA | -3.1 ± 0.37 | -3.41 ± 0.4 |
| CAGGAGCAAUAUUACGUAGC |  | -2.7 ± 0.36 |
| CAGGAGCAAUAUUACGUCUA | -1.43 ± 0.13 | -1.68 ± 0.14 |
| CAGGAGCAAUAUUACGUGAC | -2.45 ± 0.19 |  |
| CAGGAGCAAUAUUACGUUUG | -3.14 ± 0.14 | -1.43 ± 0.14 |
| CAGUAGCAAUAUUACGAAUC | -3.49 ± 0.33 |  |
| CAGUAGCAAUAUUACGAGCC | -3.88 ± 0.37 | -3.14 ± 0.47 |
| CAGUAGCAAUAUUACGAGGA | -3.13 ± 0.24 | -1.77 ± 0.2 |
| CAGUAGCAAUAUUACGAGGC | -3.19 ± 0.17 | -2.94 ± 0.3 |
| CAGUAGCAAUAUUACGAGUC | -4.27 ± 0.27 | -2.36 ± 0.17 |
| CAGUAGCAAUAUUACGAUUU | -2.52 ± 0.19 | -1.45 ± 0.17 |
| CAGUAGCAAUAUUACGCAUC |  | -1.82 ± 0.26 |
| CAGUAGCAAUAUUACGCCGG | -0.444 ± 0.21 | -0.309 ± 0.28 |
| CAGUAGCAAUAUUACGCGCG | -0.327 ± 0.16 | 0.324 ± 0.18 |
| CAGUAGCAAUAUUACGCGGC | -2.92 ± 0.32 | -2.14 ± 0.5 |
| CAGUAGCAAUAUUACGCGGU | -2.74 ± 0.12 | -2.94 ± 0.19 |

| Sequence | self-splicing fitness (ln) (30 °C) | self-splicing fitness (ln) (37 °C) |
| --- | --- | --- |
| CAGUAGCAAUAUUACGCUAC | -4.2 ± 0.3 | -2.7 ± 0.23 |
| CAGUAGCAAUAUUACGCUUC | -3.45 ± 0.3 | -2.74 ± 0.28 |
| CAGUAGCAAUAUUACGGAGC |  | -1.75 ± 0.33 |
| CAGUAGCAAUAUUACGGCAG | -0.259 ± 0.073 | 0.0185 ± 0.1 |
| CAGUAGCAAUAUUACGGCCG | -0.034 ± 0.13 | 0.348 ± 0.2 |
| CAGUAGCAAUAUUACGGGAC | -4.57 ± 0.28 | -3.56 ± 0.2 |
| CAGUAGCAAUAUUACGGGGC | -2.54 ± 0.15 | -2.55 ± 0.23 |
| CAGUAGCAAUAUUACGGUAA | -3.19 ± 0.31 | -1.57 ± 0.22 |
| CAGUAGCAAUAUUACGUCCU | -3.2 ± 0.18 | -1.43 ± 0.14 |
| CAGUAGCAAUAUUACGUGGU | -2.56 ± 0.13 | -2.54 ± 0.17 |
| CAGUAGCAAUAUUACGUUUG | -1.35 ± 0.08 | -0.625 ± 0.11 |
| CAUAAGCAAUAUUACGAAUU | -3.44 ± 0.27 | -1.52 ± 0.22 |
| CAUAAGCAAUAUUACGACAC | -2.18 ± 0.15 | -2.12 ± 0.27 |
| CAUAAGCAAUAUUACGACCA |  | -2.1 ± 0.36 |
| CAUAAGCAAUAUUACGACUU | -3.55 ± 0.24 | -1.5 ± 0.16 |
| CAUAAGCAAUAUUACGAGAU | -3.53 ± 0.15 | -3.51 ± 0.23 |
| CAUAAGCAAUAUUACGAUAU | -3.41 ± 0.28 | -2.86 ± 0.32 |
| CAUAAGCAAUAUUACGGAAG | -1.43 ± 0.075 | -0.578 ± 0.096 |
| CAUAAGCAAUAUUACGGAGG | -2.3 ± 0.11 | -0.959 ± 0.13 |
| CAUAAGCAAUAUUACGUAUU | -3.24 ± 0.19 | -3.09 ± 0.19 |
| CAUAAGCAAUAUUACGUCAA | -3.33 ± 0.27 | -2.61 ± 0.3 |
| CAUAAGCAAUAUUACGUCCA | -3.32 ± 0.33 | -1.87 ± 0.22 |
| CAUAAGCAAUAUUACGUCGA | -3.41 ± 0.26 | -2.86 ± 0.17 |
| CAUAAGCAAUAUUACGUCUG | -0.477 ± 0.065 | -0.45 ± 0.082 |
